# Measurements from publication PMC9915066.
# Molecular target: SpyTag-fused glucose dehydrogenase V149C/G190C (Streptococcus pyogenes | Aspergillus flavus)
substance,measurement,value
CYTc-SpyCatcher,"Imax^app (nA): direct electron transfer current of the complex-immobilized gold electrode on successive glucose addition, chronoamperometry at +400 mV vs. Ag/AgCl; ST-GDH alone hardly gave a response",55 nA
